Results as given in patent US20220298218A1 (ANTAG THERAPEUTICS, published 2022).

B1: AT458 (peptide)
peptide: TFISDYKIAMDKIHQQDFVNWLLAQKGKKND
HELM: PEPTIDE1{T.F.I.S.D.Y.K.I.A.M.D.K.I.H.Q.Q.D.F.V.N.W.L.L.A.Q.K.G.K.K.N.D}|PEPTIDE2{[O=C(O)CCCCCCCCCCCCCCC(=O)[*:2]].[gGlu]}$PEPTIDE1,PEPTIDE2,7:R3-2:R2$$$V2.0; N-terminus assumed
SMILES: CC[C@H](C)[C@H](NC(=O)[C@H](CCCCNC(=O)CC[C@H](NC(=O)CCCCCCCCCCCCCCC(=O)O)C(=O)O)NC(=O)[C@H](Cc1ccc(O)cc1)NC(=O)[C@H](CC(=O)O)NC(=O)[C@H](CO)NC(=O)[C@@H](NC(=O)[C@H](Cc1ccccc1)NC(=O)[C@@H](N)[C@@H](C)O)[C@@H](C)CC)C(=O)N[C@@H](C)C(=O)N[C@@H](CCSC)C(=O)N[C@@H](CC(=O)O)C(=O)N[C@@H](CCCCN)C(=O)N[C@H](C(=O)N[C@@H](Cc1c[nH]cn1)C(=O)N[C@@H](CCC(N)=O)C(=O)N[C@@H](CCC(N)=O)C(=O)N[C@@H](CC(=O)O)C(=O)N[C@@H](Cc1ccccc1)C(=O)N[C@H](C(=O)N[C@@H](CC(N)=O)C(=O)N[C@@H](Cc1c[nH]c2ccccc12)C(=O)N[C@@H](CC(C)C)C(=O)N[C@@H](CC(C)C)C(=O)N[C@@H](C)C(=O)N[C@@H](CCC(N)=O)C(=O)N[C@@H](CCCCN)C(=O)NCC(=O)N[C@@H](CCCCN)C(=O)N[C@@H](CCCCN)C(=O)N[C@@H](CC(N)=O)C(=O)N[C@@H](CC(=O)O)C(=O)O)C(C)C)[C@@H](C)CC
B2: AT459 (peptide)
peptide: TFISDYKIAMDKIHQQDFVNWLLAQKGKKNDWK
HELM: PEPTIDE1{T.F.I.S.D.Y.K.I.A.M.D.K.I.H.Q.Q.D.F.V.N.W.L.L.A.Q.K.G.K.K.N.D.W.K}|PEPTIDE2{[O=C(O)CCCCCCCCCCCCCCC(=O)[*:2]].[gGlu]}$PEPTIDE1,PEPTIDE2,7:R3-2:R2$$$V2.0; N-terminus assumed
SMILES: CC[C@H](C)[C@H](NC(=O)[C@H](CCCCNC(=O)CC[C@H](NC(=O)CCCCCCCCCCCCCCC(=O)O)C(=O)O)NC(=O)[C@H](Cc1ccc(O)cc1)NC(=O)[C@H](CC(=O)O)NC(=O)[C@H](CO)NC(=O)[C@@H](NC(=O)[C@H](Cc1ccccc1)NC(=O)[C@@H](N)[C@@H](C)O)[C@@H](C)CC)C(=O)N[C@@H](C)C(=O)N[C@@H](CCSC)C(=O)N[C@@H](CC(=O)O)C(=O)N[C@@H](CCCCN)C(=O)N[C@H](C(=O)N[C@@H](Cc1c[nH]cn1)C(=O)N[C@@H](CCC(N)=O)C(=O)N[C@@H](CCC(N)=O)C(=O)N[C@@H](CC(=O)O)C(=O)N[C@@H](Cc1ccccc1)C(=O)N[C@H](C(=O)N[C@@H](CC(N)=O)C(=O)N[C@@H](Cc1c[nH]c2ccccc12)C(=O)N[C@@H](CC(C)C)C(=O)N[C@@H](CC(C)C)C(=O)N[C@@H](C)C(=O)N[C@@H](CCC(N)=O)C(=O)N[C@@H](CCCCN)C(=O)NCC(=O)N[C@@H](CCCCN)C(=O)N[C@@H](CCCCN)C(=O)N[C@@H](CC(N)=O)C(=O)N[C@@H](CC(=O)O)C(=O)N[C@@H](Cc1c[nH]c2ccccc12)C(=O)N[C@@H](CCCCN)C(=O)O)C(C)C)[C@@H](C)CC
B3: AT455 (peptide)
peptide: TFISDYKIAMDKIHQQDFVNWLLAQKG
HELM: PEPTIDE1{T.F.I.S.D.Y.K.I.A.M.D.K.I.H.Q.Q.D.F.V.N.W.L.L.A.Q.K.G}|PEPTIDE2{[O=C(O)CCCCCCCCCCCCCCC(=O)[*:2]].[gGlu]}$PEPTIDE1,PEPTIDE2,7:R3-2:R2$$$V2.0; N-terminus assumed
SMILES: CC[C@H](C)[C@H](NC(=O)[C@H](CCCCNC(=O)CC[C@H](NC(=O)CCCCCCCCCCCCCCC(=O)O)C(=O)O)NC(=O)[C@H](Cc1ccc(O)cc1)NC(=O)[C@H](CC(=O)O)NC(=O)[C@H](CO)NC(=O)[C@@H](NC(=O)[C@H](Cc1ccccc1)NC(=O)[C@@H](N)[C@@H](C)O)[C@@H](C)CC)C(=O)N[C@@H](C)C(=O)N[C@@H](CCSC)C(=O)N[C@@H](CC(=O)O)C(=O)N[C@@H](CCCCN)C(=O)N[C@H](C(=O)N[C@@H](Cc1c[nH]cn1)C(=O)N[C@@H](CCC(N)=O)C(=O)N[C@@H](CCC(N)=O)C(=O)N[C@@H](CC(=O)O)C(=O)N[C@@H](Cc1ccccc1)C(=O)N[C@H](C(=O)N[C@@H](CC(N)=O)C(=O)N[C@@H](Cc1c[nH]c2ccccc12)C(=O)N[C@@H](CC(C)C)C(=O)N[C@@H](CC(C)C)C(=O)N[C@@H](C)C(=O)N[C@@H](CCC(N)=O)C(=O)N[C@@H](CCCCN)C(=O)NCC(=O)O)C(C)C)[C@@H](C)CC
B4: AT457 (peptide)
peptide: TFISDYKIAMDKIHQQDFVNWLLAQKGKKN
HELM: PEPTIDE1{T.F.I.S.D.Y.K.I.A.M.D.K.I.H.Q.Q.D.F.V.N.W.L.L.A.Q.K.G.K.K.N}|PEPTIDE2{[O=C(O)CCCCCCCCCCCCCCC(=O)[*:2]].[gGlu]}$PEPTIDE1,PEPTIDE2,7:R3-2:R2$$$V2.0; N-terminus assumed
SMILES: CC[C@H](C)[C@H](NC(=O)[C@H](CCCCNC(=O)CC[C@H](NC(=O)CCCCCCCCCCCCCCC(=O)O)C(=O)O)NC(=O)[C@H](Cc1ccc(O)cc1)NC(=O)[C@H](CC(=O)O)NC(=O)[C@H](CO)NC(=O)[C@@H](NC(=O)[C@H](Cc1ccccc1)NC(=O)[C@@H](N)[C@@H](C)O)[C@@H](C)CC)C(=O)N[C@@H](C)C(=O)N[C@@H](CCSC)C(=O)N[C@@H](CC(=O)O)C(=O)N[C@@H](CCCCN)C(=O)N[C@H](C(=O)N[C@@H](Cc1c[nH]cn1)C(=O)N[C@@H](CCC(N)=O)C(=O)N[C@@H](CCC(N)=O)C(=O)N[C@@H](CC(=O)O)C(=O)N[C@@H](Cc1ccccc1)C(=O)N[C@H](C(=O)N[C@@H](CC(N)=O)C(=O)N[C@@H](Cc1c[nH]c2ccccc12)C(=O)N[C@@H](CC(C)C)C(=O)N[C@@H](CC(C)C)C(=O)N[C@@H](C)C(=O)N[C@@H](CCC(N)=O)C(=O)N[C@@H](CCCCN)C(=O)NCC(=O)N[C@@H](CCCCN)C(=O)N[C@@H](CCCCN)C(=O)N[C@@H](CC(N)=O)C(=O)O)C(C)C)[C@@H](C)CC
B5: AT456 (peptide)
peptide: TFISDYKIAMDKIHQQDFVNWLLAQKGK
HELM: PEPTIDE1{T.F.I.S.D.Y.K.I.A.M.D.K.I.H.Q.Q.D.F.V.N.W.L.L.A.Q.K.G.K}|PEPTIDE2{[O=C(O)CCCCCCCCCCCCCCC(=O)[*:2]].[gGlu]}$PEPTIDE1,PEPTIDE2,7:R3-2:R2$$$V2.0; N-terminus assumed
SMILES: CC[C@H](C)[C@H](NC(=O)[C@H](CCCCNC(=O)CC[C@H](NC(=O)CCCCCCCCCCCCCCC(=O)O)C(=O)O)NC(=O)[C@H](Cc1ccc(O)cc1)NC(=O)[C@H](CC(=O)O)NC(=O)[C@H](CO)NC(=O)[C@@H](NC(=O)[C@H](Cc1ccccc1)NC(=O)[C@@H](N)[C@@H](C)O)[C@@H](C)CC)C(=O)N[C@@H](C)C(=O)N[C@@H](CCSC)C(=O)N[C@@H](CC(=O)O)C(=O)N[C@@H](CCCCN)C(=O)N[C@H](C(=O)N[C@@H](Cc1c[nH]cn1)C(=O)N[C@@H](CCC(N)=O)C(=O)N[C@@H](CCC(N)=O)C(=O)N[C@@H](CC(=O)O)C(=O)N[C@@H](Cc1ccccc1)C(=O)N[C@H](C(=O)N[C@@H](CC(N)=O)C(=O)N[C@@H](Cc1c[nH]c2ccccc12)C(=O)N[C@@H](CC(C)C)C(=O)N[C@@H](CC(C)C)C(=O)N[C@@H](C)C(=O)N[C@@H](CCC(N)=O)C(=O)N[C@@H](CCCCN)C(=O)NCC(=O)N[C@@H](CCCCN)C(=O)O)C(C)C)[C@@H](C)CC
B6: AT460 (peptide)
peptide: TFISDYKIAMDKIHQQDFVNWLLAQKGKKNDWKH
HELM: PEPTIDE1{T.F.I.S.D.Y.K.I.A.M.D.K.I.H.Q.Q.D.F.V.N.W.L.L.A.Q.K.G.K.K.N.D.W.K.H}|PEPTIDE2{[O=C(O)CCCCCCCCCCCCCCC(=O)[*:2]].[gGlu]}$PEPTIDE1,PEPTIDE2,7:R3-2:R2$$$V2.0; N-terminus assumed
SMILES: CC[C@H](C)[C@H](NC(=O)[C@H](CCCCNC(=O)CC[C@H](NC(=O)CCCCCCCCCCCCCCC(=O)O)C(=O)O)NC(=O)[C@H](Cc1ccc(O)cc1)NC(=O)[C@H](CC(=O)O)NC(=O)[C@H](CO)NC(=O)[C@@H](NC(=O)[C@H](Cc1ccccc1)NC(=O)[C@@H](N)[C@@H](C)O)[C@@H](C)CC)C(=O)N[C@@H](C)C(=O)N[C@@H](CCSC)C(=O)N[C@@H](CC(=O)O)C(=O)N[C@@H](CCCCN)C(=O)N[C@H](C(=O)N[C@@H](Cc1c[nH]cn1)C(=O)N[C@@H](CCC(N)=O)C(=O)N[C@@H](CCC(N)=O)C(=O)N[C@@H](CC(=O)O)C(=O)N[C@@H](Cc1ccccc1)C(=O)N[C@H](C(=O)N[C@@H](CC(N)=O)C(=O)N[C@@H](Cc1c[nH]c2ccccc12)C(=O)N[C@@H](CC(C)C)C(=O)N[C@@H](CC(C)C)C(=O)N[C@@H](C)C(=O)N[C@@H](CCC(N)=O)C(=O)N[C@@H](CCCCN)C(=O)NCC(=O)N[C@@H](CCCCN)C(=O)N[C@@H](CCCCN)C(=O)N[C@@H](CC(N)=O)C(=O)N[C@@H](CC(=O)O)C(=O)N[C@@H](Cc1c[nH]c2ccccc12)C(=O)N[C@@H](CCCCN)C(=O)N[C@@H](Cc1c[nH]cn1)C(=O)O)C(C)C)[C@@H](C)CC

Target: T1, human GIP receptor (human, UniProt P48546 22-466)
T1 sequence (looked up): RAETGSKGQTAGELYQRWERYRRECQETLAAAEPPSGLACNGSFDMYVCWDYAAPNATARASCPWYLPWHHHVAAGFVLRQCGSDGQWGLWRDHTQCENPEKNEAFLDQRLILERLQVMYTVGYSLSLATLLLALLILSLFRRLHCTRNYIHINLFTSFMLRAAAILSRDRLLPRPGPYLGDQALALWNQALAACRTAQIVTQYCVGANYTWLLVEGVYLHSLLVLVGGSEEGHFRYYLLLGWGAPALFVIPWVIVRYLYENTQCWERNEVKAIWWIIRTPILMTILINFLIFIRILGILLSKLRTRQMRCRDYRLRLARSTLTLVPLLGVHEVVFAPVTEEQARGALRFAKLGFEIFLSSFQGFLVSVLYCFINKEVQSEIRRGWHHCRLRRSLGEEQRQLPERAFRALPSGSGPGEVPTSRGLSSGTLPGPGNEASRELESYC
Test: cell-based or functional assay

Binder | cAMP antagonism | cAMP antagonism % inhib | cAMP antagonism log
B1 | 38 nM | 100% | -7.4 log M
B2 | 31 nM | 88% | -7.5 log M
B3 | 31 nM | 95% | -7.5 log M
B4 | 14 nM | 100% | -7.9 log M
B5 | 60 nM | 85% | -7.2 log M
B6 | 40 nM | 100% | -7.4 log M
